± gives the uncertainty stated by the source.
Assay: self-splicing fitness, log relative to wild type (ln ratio); higher = more splicing; Tetrahymena group I intron in knt gene, E. coli kanamycin selection, DiMSum; sequences stand for … in CUCUCU…GGAGGGAAAAGUUAUCAGGCAUGCACCUGGUAGCUAGUCUUUAAACCAAUAGAUUGCAUCGGUUUAAAAGGCAAGACCGUCAAAUUGCGGGAAAGGGGUCAACAGCCGUUCAGUACCAAGUCUCAGGGGAAACUUUGAGAUGGCCUUGCAAAGGGUAUGGUAAUAAGCUGACGGACAUGGUCCUAACCACGCAGCCAAGUCCUAAGUCAACAGAUCUUCUGUUGAUAUGGAUGCAGUUCACAGACUAAAUGUCGGUCGGGGAAGAUGUAUUCUUCUCAUAAGAUAUAGUCGGACCUCUCCUUAAUGGGAGCUAGCGGAUGAAGUGAUGCAACACUGGAGCCGCUGGGAACUAAUUUGUAUGCGAAAGUAUAUUGAUUAGUUUUGGAGUACUCGUGGUCG
Summary of the method: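 DiMSum derived fitness as the error-weighted combination of fold changes across replicates, kanamycin versus no kanamycin, normalised to wild type. E. coli BL21(DE3) held the library, which randomised all eight P1ex-region intron nucleotides within the knt kanamycin-resistance gene on pET-22b(+). Six replicate transformations grew overnight at 37°C or 30°C on LB agar with or without 25 μg/mL kanamycin, also containing 100 μg/mL carbenicillin, 50 μM IPTG and 0.2% rhamnose, and pooled colonies were amplicon-sequenced on an Illumina HiSeq 2500.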

## AUCCAGCAAUAUUACGAUAG
30 °C
  self-splicing fitness (ln): -2.71 ± 0.25
37 °C
  self-splicing fitness (ln): -2.84 ± 0.31

## GGACAGCAAUAUUACGGACA
30 °C
  self-splicing fitness (ln): -0.509 ± 0.11
37 °C
  self-splicing fitness (ln): -0.307 ± 0.11

## UAAAAGCAAUAUUACGCCGC
37 °C
  self-splicing fitness (ln): -1.17 ± 0.23

## CCGAAGCAAUAUUACGUCAC
30 °C
  self-splicing fitness (ln): -3.29 ± 0.35

## CACGAGCAAUAUUACGGCCC
30 °C
  self-splicing fitness (ln): -3.09 ± 0.28
37 °C
  self-splicing fitness (ln): -2.95 ± 0.36

## AUUUAGCAAUAUUACGCUAU
30 °C
  self-splicing fitness (ln): -3.64 ± 0.3
37 °C
  self-splicing fitness (ln): -0.748 ± 0.23

## GAAUAGCAAUAUUACGUCUA
30 °C
  self-splicing fitness (ln): -1.12 ± 0.12
37 °C
  self-splicing fitness (ln): -0.42 ± 0.13

## CCUUAGCAAUAUUACGUUGA
30 °C
  self-splicing fitness (ln): -3.24 ± 0.21
37 °C
  self-splicing fitness (ln): -3.02 ± 0.24

## GGGCAGCAAUAUUACGUAAG
30 °C
  self-splicing fitness (ln): -0.581 ± 0.063
37 °C
  self-splicing fitness (ln): 0.126 ± 0.096

## UUCUAGCAAUAUUACGGCAU
30 °C
  self-splicing fitness (ln): -1.81 ± 0.16
37 °C
  self-splicing fitness (ln): -1.58 ± 0.19

## ACACAGCAAUAUUACGGAGA
30 °C
  self-splicing fitness (ln): -4.21 ± 0.21
37 °C
  self-splicing fitness (ln): -2.23 ± 0.14

## AUCGAGCAAUAUUACGAAGU
30 °C
  self-splicing fitness (ln): -2.62 ± 0.18
37 °C
  self-splicing fitness (ln): -1.49 ± 0.18

## CGGUAGCAAUAUUACGGCUG
30 °C
  self-splicing fitness (ln): -4.13 ± 0.25
37 °C
  self-splicing fitness (ln): -1.05 ± 0.16

## CUCAAGCAAUAUUACGAUGG
30 °C
  self-splicing fitness (ln): -1.28 ± 0.061
37 °C
  self-splicing fitness (ln): 0.0609 ± 0.08

## CCGGAGCAAUAUUACGAUGA
30 °C
  self-splicing fitness (ln): -2.7 ± 0.23
37 °C
  self-splicing fitness (ln): -1.37 ± 0.23

## ACAGAGCAAUAUUACGGUUG
30 °C
  self-splicing fitness (ln): -3.68 ± 0.24
37 °C
  self-splicing fitness (ln): -3.02 ± 0.22

## GGUAAGCAAUAUUACGUUGC
30 °C
  self-splicing fitness (ln): -3.3 ± 0.32
37 °C
  self-splicing fitness (ln): -2.95 ± 0.4

## GUGGAGCAAUAUUACGUACG
37 °C
  self-splicing fitness (ln): -2.05 ± 0.23

## UGCAAGCAAUAUUACGUUGG
30 °C
  self-splicing fitness (ln): -2.87 ± 0.12
37 °C
  self-splicing fitness (ln): -2.22 ± 0.14

## AAGGAGCAAUAUUACGAGUG
37 °C
  self-splicing fitness (ln): -2.2 ± 0.4

## GGGAAGCAAUAUUACGCUAA
30 °C
  self-splicing fitness (ln): -1.84 ± 0.2
37 °C
  self-splicing fitness (ln): -0.363 ± 0.18

## AAGGAGCAAUAUUACGGGAA
30 °C
  self-splicing fitness (ln): -2.09 ± 0.2
37 °C
  self-splicing fitness (ln): -3.29 ± 0.24

## GCCCAGCAAUAUUACGCCUG
30 °C
  self-splicing fitness (ln): -3.5 ± 0.3
37 °C
  self-splicing fitness (ln): -2.64 ± 0.26

## ACGUAGCAAUAUUACGCCGA
30 °C
  self-splicing fitness (ln): -1.34 ± 0.23
37 °C
  self-splicing fitness (ln): -0.566 ± 0.18

## AACUAGCAAUAUUACGCAUC
30 °C
  self-splicing fitness (ln): -2.73 ± 0.14
37 °C
  self-splicing fitness (ln): -2.28 ± 0.22

## AACAAGCAAUAUUACGAUGU
30 °C
  self-splicing fitness (ln): -1.64 ± 0.077
37 °C
  self-splicing fitness (ln): -0.411 ± 0.094

## GUUAAGCAAUAUUACGUUCA
30 °C
  self-splicing fitness (ln): -0.268 ± 0.09
37 °C
  self-splicing fitness (ln): -0.472 ± 0.11

## UCGAAGCAAUAUUACGCCGA
30 °C
  self-splicing fitness (ln): -0.786 ± 0.25
37 °C
  self-splicing fitness (ln): -1.16 ± 0.28

## UAACAGCAAUAUUACGAGCG
30 °C
  self-splicing fitness (ln): -0.617 ± 0.055
37 °C
  self-splicing fitness (ln): 0.286 ± 0.069

## UAAUAGCAAUAUUACGGCUC
30 °C
  self-splicing fitness (ln): -2.37 ± 0.23
37 °C
  self-splicing fitness (ln): -0.201 ± 0.23

## CCCAAGCAAUAUUACGCUUA
30 °C
  self-splicing fitness (ln): -3.38 ± 0.22
37 °C
  self-splicing fitness (ln): -2.78 ± 0.21

## AAGCAGCAAUAUUACGGAGA
30 °C
  self-splicing fitness (ln): -2.7 ± 0.13
37 °C
  self-splicing fitness (ln): -1.44 ± 0.13

## UCGCAGCAAUAUUACGGGGG
30 °C
  self-splicing fitness (ln): -2.52 ± 0.15
37 °C
  self-splicing fitness (ln): -1.86 ± 0.17

## AUGGAGCAAUAUUACGUGAU
30 °C
  self-splicing fitness (ln): -2.73 ± 0.088
37 °C
  self-splicing fitness (ln): -0.769 ± 0.08

## CUACAGCAAUAUUACGUCGG
30 °C
  self-splicing fitness (ln): -1.98 ± 0.066
37 °C
  self-splicing fitness (ln): -0.736 ± 0.079

## CUCCAGCAAUAUUACGAGCG
30 °C
  self-splicing fitness (ln): -2.95 ± 0.16
37 °C
  self-splicing fitness (ln): -2.56 ± 0.23

## AAGGAGCAAUAUUACGCUAA
30 °C
  self-splicing fitness (ln): -2.97 ± 0.23
37 °C
  self-splicing fitness (ln): -1.51 ± 0.2

## CAGUAGCAAUAUUACGACUU
30 °C
  self-splicing fitness (ln): 0.0553 ± 0.058
37 °C
  self-splicing fitness (ln): 0.35 ± 0.071

## CCAAAGCAAUAUUACGAAUG
30 °C
  self-splicing fitness (ln): -1.03 ± 0.07
37 °C
  self-splicing fitness (ln): -0.166 ± 0.092

## CAAAAGCAAUAUUACGUUCG
30 °C
  self-splicing fitness (ln): -0.43 ± 0.051
37 °C
  self-splicing fitness (ln): 0.246 ± 0.066

## AAGCAGCAAUAUUACGGAAU
30 °C
  self-splicing fitness (ln): -3.08 ± 0.13
37 °C
  self-splicing fitness (ln): -1.66 ± 0.11

## CUUUAGCAAUAUUACGUAUU
30 °C
  self-splicing fitness (ln): -3.07 ± 0.24
37 °C
  self-splicing fitness (ln): -1.34 ± 0.21

## UACGAGCAAUAUUACGCGCC
30 °C
  self-splicing fitness (ln): -2.33 ± 0.42
